Measured values reported in paper PMC12748864, “Potent neutralization by antibodies targeting the MPXV A28 protein” (Nature Communications, 2025).

B1: mAb 10M2146 (human IgG1, anti-A28) (antibody, V domains shown)
VH: EVQLVQSGAEVKKPGESLKISCKGSGYSFTTHWIGWVRQMPGEGLEWLGIIYPGDSETKYSPSFQGQVTISVDKSINTAYLHWSSLKASDTAMYFCARRPKNYYDASGYYNWLDPWGQGTLVTVSS
VL: EIQMTQSPSTLSASVGDRVTITCRASQSLSTWLAWYQQKPGKAPKLLIYKASILESGVPSRFSASGSGTEFTLTISGLQPDDFATYYCQQYNSYLGAFGQGTKVEIK
B2: Fab 10M2146 (Fab, V domains shown)
VH: B1 VH
VL: B1 VL
notes: also called 10M2146 F(ab)
B3: Germline 1 (germline-reverted 10M2146 / 10M2154) (antibody, V domains shown)
VH: EVQLVQSGAEVKKPGESLKISCKGSGYSFTSYWIGWVRQMPGKGLEWMGIIYPGDSDTRYSPSFQGQVTISADKSISTAYLQWSSLKASDTAMYYCARRPKYYYDSSGYYNWLDPWGQGTLVTVSS
VL: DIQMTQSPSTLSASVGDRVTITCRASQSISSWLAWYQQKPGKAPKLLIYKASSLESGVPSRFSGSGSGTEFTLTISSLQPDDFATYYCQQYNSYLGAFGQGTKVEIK

Assays:
Settings in all cases: both partners purified
[1] = molecular target: T1, VACV A26 (OPG153), residues 2-361 (Vaccinia virus strain IHDW, template …, UniProt P24758, strain); assay: ELISA
T1 construct: also called VACV homolog of A28

[2] = molecular target: MPXV A28 (OPG153), residues 2-361 (Monkeypox virus, template GenBank …, UniProt A0A7H0DNC4); assay: ELISA
MPXV A28 (OPG153), residues 2-361, sequence (A0A7H0DNC4 whole entry, looked up, the tested form may be a part): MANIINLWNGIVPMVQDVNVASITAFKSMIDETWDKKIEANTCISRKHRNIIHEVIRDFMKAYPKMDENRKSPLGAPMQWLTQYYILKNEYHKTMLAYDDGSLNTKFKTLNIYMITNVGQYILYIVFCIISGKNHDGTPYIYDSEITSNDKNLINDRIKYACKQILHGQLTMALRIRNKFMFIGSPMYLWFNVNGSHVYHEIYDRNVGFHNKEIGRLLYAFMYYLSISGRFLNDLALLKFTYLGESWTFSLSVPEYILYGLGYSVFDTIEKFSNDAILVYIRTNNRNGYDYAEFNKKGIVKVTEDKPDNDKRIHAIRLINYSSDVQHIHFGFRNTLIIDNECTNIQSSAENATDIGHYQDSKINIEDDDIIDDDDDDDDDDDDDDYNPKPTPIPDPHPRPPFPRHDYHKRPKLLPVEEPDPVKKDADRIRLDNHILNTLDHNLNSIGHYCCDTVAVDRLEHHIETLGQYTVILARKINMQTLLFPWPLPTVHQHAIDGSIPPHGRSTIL

[3] = molecular target: T2, VACV A26 head domain (amino acids 1-397), strain Western Reserve (Vaccinia virus (strain Western Reserve), UniProt P24758); assay: crystal structure
T2 construct: also called residues 1-397 of A26

| Binder | binding result [1] | binding result [2] | binding result [3] |
| --- | --- | --- | --- |
| B1 | binds | binds |  |
| B2 |  |  | binds |
| B3 | binds | binds |  |
